Data: paper PMC10375191, “Transformable Neuropeptide Prodrug with Tumor Microenvironment Responsiveness for Tumor Growth and Metastasis Inhibition of Triple‐Negative Breast Cancer” (Advanced Science, 2023)
Starred links: 1 amine or outer side, 2 acyl side, 3 side chain; linkers in the order of their positions; H or OH if unused. Residues, ends and D or L forms follow the SMILES beside them. *: point of attachment. Doxorubicin(3'-N) = COc1cccc2c1C(=O)c1c(O)c3c(c(O)c1C2=O)C[C@@](O)(C(=O)CO)C[C@@H]3O[C@H]1C[C@H](N*)[C@H](O)[C@H](C)O1; Suc = O=C(CCC(=O)[*:2])[*:1]

Legend:
[1] = system: MDA‐MB‐231 tumor‐bearing BALB/c nude mice; experiment: Biodistribution by ex vivo fluorescence imaging; assay type: in vivo, mouse; details: single i.v. injection, ex vivo fluorescence 2-12 h
Protocol: At 2, 4, 6, 8, 10, and 12 h post‐injection, the major organs and tumor were taken out and fluorescence signals were captured by IVIS.

[2] = system: MCF‐10A cells; experiment: CCK-8 cell viability assay, MCF-10A; assay type: cell-based, human; details: 24 h
Protocol: (§1) MDA‐MB‐231 cells were incubated in 96‐well plates for 24 h (1 × 10^4 cells per well). […] At the appointed time, 10 µL CCK‐8 solution was dropped into each well and further co‐incubated with treated cells for 2 h. The absorbance values at 450 nm were measured by an automated plate reader (iMark (168‐1130), Biorad, USA). The IC50 values were obtained from Microsoft Excel's FORECAST formula.
mammary epithelial cell line MCF-10A after 24 h incubation. Data are presented as
means ± standard deviations (n = 3).
(§2) (1 picture or pasted object on this page, not shown here)

[3] = system: MCF‐7 cells; experiment: CCK-8 cell viability assay, MCF-7; assay type: cell-based, human; details: MCF-7, 24 h
Protocol: as §1
breast cancer cell line MCF-7 after 24 h incubation. Data are presented as means ±
standard deviations (n = 3).
as §2

[4] = target: T1, matrix metalloproteinase‐9 (MMP‐9) (Homo sapiens, UniProt P14780); experiment: MMPs-responsive cleavage of DOX-P18 by MMP-9 (HPLC, MS, fluorescence); assay type: in vitro ADME
T1 construct: purchased Novoprotein Scientific Inc. (Shanghai, China)
T1 sequence (P14780 94-707): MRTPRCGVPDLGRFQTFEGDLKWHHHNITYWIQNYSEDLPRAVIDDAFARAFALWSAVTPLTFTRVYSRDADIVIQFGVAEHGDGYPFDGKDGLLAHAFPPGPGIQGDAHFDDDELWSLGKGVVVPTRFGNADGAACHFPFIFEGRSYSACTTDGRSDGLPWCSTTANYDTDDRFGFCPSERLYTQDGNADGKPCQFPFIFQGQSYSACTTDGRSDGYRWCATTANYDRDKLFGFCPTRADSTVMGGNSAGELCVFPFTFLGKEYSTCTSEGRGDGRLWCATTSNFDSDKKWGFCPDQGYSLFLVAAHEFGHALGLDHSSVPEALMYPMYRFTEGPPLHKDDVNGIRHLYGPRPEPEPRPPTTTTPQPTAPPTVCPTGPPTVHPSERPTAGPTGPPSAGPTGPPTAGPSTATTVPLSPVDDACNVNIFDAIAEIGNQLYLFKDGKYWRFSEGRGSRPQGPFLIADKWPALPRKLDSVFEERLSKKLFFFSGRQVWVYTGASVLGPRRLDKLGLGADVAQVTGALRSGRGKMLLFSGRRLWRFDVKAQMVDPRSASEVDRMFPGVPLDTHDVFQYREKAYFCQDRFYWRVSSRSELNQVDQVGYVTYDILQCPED
Protocol: The enzymatic reaction process was monitored by HPLC at 6, 12, 24, and 72 h.
Doxorubicin hydrochloride (DOX·HCl), trifluoroacetic acid (TFA), and anhydrous N,N-Dimethylformamide (DMF) were purchased from Aladdin (Shanghai, China).
Thioanisole (TA), 1,2-ethanedithiol (EDT), and phenol were obtained from Macklin (Shanghai, China). 4-methylmorpholine (NMM), N,N’-diisopropylcarbodiimide (DIC), and 1-hydroxybenzotriazole (HOBt) were purchased from OKA (Beijing, China). Rink amide methylbenzhydrylamine (MBHA) resin, Wang resin and all Fmoc-protected amino acids were obtained from NJPeptide (Nanjing, China). Ethanol, diethyl ether, acetonitrile (ACN), and methanol were purchased from Sinopharm Chemical Reagent Co., Ltd (Shanghai, China). Piperidine, p-nitrophenol, and succinic anhydride (Succ) were obtained from Sigma-Aldrich (Shanghai, China). Recombinant human matrix metalloproteinase-2 (MMP-2) and matrix metalloproteinase-9 (MMP-9) produced by Novoprotein Scientific Inc. (Shanghai, China) are supplied as a 0.2 μm filtered buffer mixture of 20 mM Tris-HCl, 2 mM CaCl2, 150 mM NaCl, 0.05 % Brij 35 (w/v), pH 7.5, and their specific activity is >1300 pmol/min/µg as measured under the described conditions. All commercial reagents and HPLC solvents were used with […]

[5] = system: MDA‐MB‐231 xenograft model; experiment: In vivo antitumor evaluation, MDA-MB-231 xenograft; parameters: species or system mouse
Excerpt: (§3) All the animal experimental procedures were recognized and approved by the Regional Ethics Committee for Animal Experiments at Ningbo University, China (Permit NO. SYXK (Zhe) 2019‐0005). The triple‐negative breast cancer (TNBC) xenograft tumors were established on female BALB/c nude mice (≈15 g) by subcutaneous injection of MDA‐MB‐231 cells (5 × 10^6 cells in each mouse). TNBC metastasis models were constructed by injecting MDA‐MB‐231‐luc cells (1 × 10^5 cells in each mouse) through the tail vein to female BALB/c nude mice. The day that MDA‐MB‐231‐luc was injected was set as D0. In vivo imaging system (IVIS) (Lumina XRMS Ш, PerkinElmer, USA) was utilized to identify the tumor metastasis at D12.
When the tumor volume of BALB/c mice reached ≈70 mm^3 (V = L × W × W/2), the tumor‐bearing mice were randomly divided into seven groups (n = 5 for each group). […] 100 µL drug was injected intravenously through the tail vein every other day for a total of five times. The day that the first injection was given was set as D0. Tumor size and mouse weight were measured every 2 days from the day that treatment started until D26.

[6] = system: healthy ICR mice; experiment: Maximum tolerated dose / acute toxicity study
Excerpt: Animal survival of each group (n = 10, 5 female and 5 male) was continuously recorded for 14 days. Eventually, the evaluation and calculation of the median lethal dose (LD50) were completed with these collected data using the Bliss rule.

[7] = system: MDA‐MB‐231 metastasis model; experiment: Anti-metastasis evaluation, MDA-MB-231 metastasis model; assay type: in vivo, mouse; details: MDA-MB-231-luc i.v. model
Excerpt: as §3
For the TNBC metastasis model, two kinds of treatments were developed. […] After seven times of injections, continued observation of the mice was carried out. […] In vivo imaging system (IVIS Lumina XRMS Ш, PerkinElmer, USA) was utilized again to estimate the tumor metastasis at D26. Meanwhile, the mice were sacrificed and the main organs (heart, livers, spleen, lung, and kidney) were separated for histological analysis.

[8] = system: MDA‐MB‐231 cells; experiment: CCK-8 cell viability assay, MDA-MB-231; assay type: cell-based, human; details: MDA-MB-231, 36 and 48 h versus 24 h
Protocol: as §1

[9] = system: MDA‐MB‐231 cells; experiment: Wound healing experiment; assay type: cell-based, human
Protocol: Wound healing culture inserts were tightly stuck on 12‐well plates and 2 × 10^4 MDA‐MB‐231 cells were seeded in the gap of the culture inserts to incubate for 24 h. […] After incubation for 12 and 24 h, the wound healing area was photographed by a microscope (DFC 450C, Leica, Germany).

[10] = Morphological transformation / particle size by DLS and TEM in PBS of different pH; assay type: physicochemical; details: DLS

## CC[C@H](C)[C@H](NC(=O)[C@@H]1CCCN1C(=O)[C@H](CC(N)=O)NC(=O)[C@H](CC(N)=O)NC(=O)[C@H](Cc1ccc(O)cc1)NC(=O)[C@H](Cc1c[nH]cn1)NC(=O)[C@H](CCCNC(=N)N)NC(=O)CNC(=O)[C@H](CCCNC(=N)N)NC(=O)[C@@H](NC(=O)CNC(=O)[C@H](CC(C)C)NC(=O)[C@@H]1CCCN1C(=O)CCC(=O)N[C@H]1C[C@H](O[C@H]2C[C@](O)(C(=O)CO)Cc3c(O)c4c(c(O)c32)C(=O)c2c(OC)cccc2C4=O)O[C@@H](C)[C@H]1O)C(C)C)C(=O)N[C@@H](Cc1c[nH]c2ccccc12)C(=O)N[C@@H](CCCNC(=N)N)C(=O)N[C@@H](CCC(N)=O)C(=O)N[C@@H](CCCNC(=N)N)C(=O)N[C@@H](Cc1ccc(O)cc1)C(N)=O [DOX‐P18] ({Doxorubicin(3'-N)-Suc}-PLGVRGRHYNNPIWRQRY-NH2)
[1]
  Time of highest content in tissues: 6 h
[2]
  IC50 (cytotoxicity), in words: higher
[3]
  IC50 (cytotoxicity), in words: higher
[4]; 0.1 µg mL^−1 MMP-2 or MMP-9, 20 µg mL^−1 DOX-P18, 12 and 24 h, fluorescence intensity at 592 nm (Ex 488 nm)
  Cleavage efficiency of MMP-9 relative to MMP-2: about 10 times
[4]; 1 mg mL^−1 DOX-P18 with 1 µg mL^−1 MMP-9, 37 °C, HPLC at 6, 12, 24, 72 h, monitored at 500 nm, product DOX-P3 identified by MS
  Enzymatic cleavage by MMP-9: efficiently cleaved
[5]; MDA-MB-231 tumor-bearing nude mice, DOX-P18 up to 100 mg kg^−1 (20 mg kg^−1 DOX), DOX at 10 and 20 mg kg^−1
  Death / body weight in tumor-bearing mice: no death or obvious weight losses
[5]; MDA-MB-231 xenograft, 100 mg kg^−1 (equivalent to 20 mg kg^−1 DOX) i.v. every other day, five times, n = 5
  Tumor growth inhibition: significant inhibitory efficacy
[5]; MDA-MB-231 xenograft, 24 days, five administrations, 5 mg kg^−1 DOX or DOX equivalent
  Histological analysis of major organs after treatment: without obvious lesions in other organs
[6]; 14 days after single dose, 40 mg kg^−1 DOX (or DOX equivalent)
  Histological analysis of major organs: no significant differences in major organs
[6]; 14 days after single injection, n = 3, DOX: WBC, PLT, PCT at 10 mg kg^−1, DOX-P18: all indexes, different doses
  Blood routine indexes: not significantly different
[6]; LD50 in DOX equivalents versus free DOX
  Improvement of biosafety (LD50 versus DOX): 67.8%
[6]; single intravenous dose, 14 days, n = 10 per group, Bliss rule
  Single-dose median lethal dose (LD50): 221.5 mg/kg
[7]; 25 mg kg^−1 DOX-P18 (5 mg kg^−1 DOX) seven times every 2 days from D0
  Lung metastasis, prevention schedule (histology D26): limited number
[7]; 25 mg kg^−1 DOX-P18 (5 mg kg^−1 DOX) seven times every 2 days from D14
  Lung and bone metastasis, treatment schedule (histology D26): significant metastasis inhibition
[8]
  IC50 with extended incubation time: further reduced
[9]; MDA-MB-231, 5 µg mL^−1, 12 h, PBS group 50.8%
  Wound healing rate: 40.3%
[9]; MDA-MB-231, 5 µg mL^−1, 24 h, PBS group defined as 100%
  Wound healing rate (coverage rate): 71.5%
[10]; PBS buffer pH 7.4
  Aggregation state (particle size distribution): nanoparticles could only be detected
[10]; PBS, neutral and weakly acidic media (pH ≤ 6.5; 6.5, 6.0, 5.0)
  Aggregation state (particle size distribution): monomolecular dispersion
